The text below walks through data of the DeepSol protein solubility set.

A short description of the data set: soluble on expression in E. coli; label from the status in PepcDB or PDB records.
For “SGFEFHGYARSGVIMNDSGASTKSGAYITPAGETGGAIGRLGNQADTYVEMNLEHKQTLDNGATTRFKVMVADGQTSYNDWTASTSDLNVRQAFVELGNLPTFAGPFKGSTLWAGKRFDRDNFDIHWIDSDVVFLAGTGGGIYDVKWNDGLRSNFSLYGRNFGDIDDSSNSVQNYILTMNHFAGPLQMMVSGLRAKDNDERKDSNGNLAKGDAANTGVHALLGLHNDSFYGLRDGSSKTALLYGHGLGAEVKGIGSDGALRPGADTWRIASYGTTPLSENWSVAPAMLAQRSKDRYADGDSYQWATFNLRLIQAINQNFALAYEGSYQYMDLKPEGYNDRQAVNGSFYKLTFAPTFKVGSIGDFFSRPEIRFYTSWMDWSKKLNNYASDDALGSDGFNSGGEWSFGVQMETWF”, the “soluble on expression in E. coli” value is given as “soluble”.

As to “SGQLLPQGAYREVPQYWKQAAELINREGAHTRTLVLPAASFARQTWGWTRDEPLQPLLQVPWVVRDAVPLVPPETIRGLDGVLSVVDKGAVDHLGDQLRRIGVGIVVIRHDLVAPHSGDATLTLMRSEFPDIKVHTFGSGKERVDVAILDRQAHGYLTDKLTRVAGGGEALSLLGPGDFILSDSDAEIVTDTPMLAARNYGAARRAISAPLATEAEGKDVGNPVRDYPSAARATRVVERGGHVVASSSAADATAFGGADPTRSITAAVDNDPDTAWFAAPGDRHPWLELQAESPDPHLELRITGKAGKVIIRSNNAHVAADMRPGVPTTIRIPGGATNRVRIEVAPGMGIASAQLIHSPITRVPTLPPAGPSAHTFLFQKVMVDTGLLTRGFETARPIEVTLSASHCERTITIDQVTYACGERFLLPAGYHELSTRSDWVRLSGDGKAGFVDLNGDSVFVTTQAANRGMRAFIGDHELTPISVNAGGQGFIVPKALATDDVLDVIRFEFAGEHTYRR”, the “soluble on expression in E. coli” value is “not soluble”. “SGSSEDQAYRLLNDYANGFMVSQVLFAACELGVFDLLAEAPGPLDVAAVAAGVRASAHGTELLLDICVSLKLLKVETRGGKAFYRNTELSSDYLTTVSPTSQCSMLKYMGRTSYRCWGHLADAVREGRNQYLETFGVPAEELFTAIYRSEGERLQFMQALQEVWSVNGRSVLTAFDLSVFPLMCDLGGDFFKDPLPEADLYILARVLHDWADGKCSHLLERIYHTCKPGGGILVIESLLDEDRRGPLLTQLYSLNMLVQTEGQERTPTHYHMLLSSAGFRDFQFKKTGAIYDAILARK”: the “soluble on expression in E. coli” value is given as “soluble”. Regarding “SHMTPDIILQRTGIDVRAVEQGDDAWHKLRLGVITASEVHNVIAKPRSGKKWPDMKMSYFHTLLAEVCTGVAPEVNAKALAWGKQYENDARTLFEFTSGVNVTESPIIYRDESMRTACSPDGLCSDGNGLELKCPFTSRDFMKFRLGGFEAIKSAYMAQVQYSMWVTRKNAWYFANYDPRMKREGLHYVVIERDEKYMASFDEIVPEFIEKMDEALAEIGFVFGEQWR”, the “soluble on expression in E. coli” value was “soluble”. With “SIDSKLQTLGEQLMQGKRGAIVMIEPETGEVLCLVSSPSYDPSLLAGKDRGKNHLEMEHDRNKPLYARAIQATYPPGSTFKPAQGAIFLQEGVIRPTDAFSCYHGFPPLNNRPACHSHGSPLSLVPALATSCNAFFCWGLRAMLDNRRFYPSVQEAFEHWKNRIVGLGFGYRLGLDLPGERRGYIPNSKVYDKAYKGRWNSSTIISISIGQGEILATPLQIANLGVIIANRGRYRRPHVVKAIQGIPLDTAYTNWQNSGISPANMEYIVEGMARAVTGGTCHAANFAPGEIEVCGKTGTAENPHGKDHSAFLGFAPRNNPKVVVSVYVENGGFGAVYGVPIGRVMMEYYLREGKLSPEGEAVATKMSNTAIHYSNVF”, the “soluble on expression in E. coli” value is “not soluble”. As for “SKEDCLPSSHVPISDSKSIQKSELLGLLKTYNCYHEGKSFQLRHREEEGTLIIEGLLNIAWGLRRPIRLQMQDDREQVHLPSTSWMPRRPSCPLKEPSPQNGNITAQGPSIQPVHKAESSTDSSGPLEEAEEAPQLMRTKSDASCMSQRRPKCRAPGEAQRIRRHRFSINGHFYNHKTSVFTPAYGSVTNVRVNSTMTTLQVLTLLLNKFRVEDGPSEFALYIVHESGERTKLKDCEYPLISRILHGPCEKIARIFLMEADLGVEVPHEVAQYIKFEMPVLDSFVEKLKEEEEREIIKLTMKFQALRLTMLQRLEQLVEAK”, the “soluble on expression in E. coli” value was “soluble”.

On to “SKLDSYTHLSFYEKRELFRKKLREIEGPEVTLVNEVDDEPCPSLDFQFISQYRLTQGVIPPDPNFQSGCNCSSLGGCDLNNPSRCECLDDLDEPTHFAYDAQGRVRADTGAVIYECNSFCSCSMECPNRVVQRGRTLPLEIFKTKEKGWGVRSLRFAPAGTFITCYLGEVITSAEAAKRDKNYDDDGITYLFDLDMFDDASEYTVDAQNYGDVSRFFNHSCSPNIAIYSAVRNHGFRTIYDLAFFAIKDIQPLEELTFDYAGAKDFSPVQSQKSQQNRISKLRRQCKCGSANCRGWLFG”, for which the “soluble on expression in E. coli” value is reported as “soluble”. Regarding “SKREHNHRRITVTAAIGNKHRRQLATNLHAIEHHAFEHFIAWVAENHFEPEADCKLGTRLRHAGVPGQQ”, the “soluble on expression in E. coli” value is given as “soluble”.

In the case of “SKTNHIVIIGYSRIGKCVALSLINRGDPVVIVEESKRLTDKAIADGFEVICGNIIKQDVMNAANMSNAYKVVITMCNTIEVGECIVNIRDMNKDIQIITHTLSDVDTAYLIDLGADIVVTDEEEIANGVIEHITGQRFIKNIAQS”, the “soluble on expression in E. coli” value was “soluble”. As for “SKVMTLKDAIAKYVHSGDHIALGGFTTDRKPYAAVFEILRQGITDLTGLGGAAGGDWDMLIGNGRVKAYINCYTANSGVTNVSRRFRKWFEAGKLTMEDYSQDVIYMMWHAAALGLPFLPVTLMQGSGLTDEWGISKEVRKTLDKVPDDKFKYIDNPFKPGEKVVAVPVPQVDVAIIHAQQASPDGTVRIWGGKFQDVDIAEAAKYTIVTCEEIISDEEIRRDPTKNDIPGMCVDAVVLAPYGAHPSQCYGLYDYDNPFLKVYDKVSKTQEDFDAFCKEWVFDLKDHDEYLNKLGATRLINLKVVPGLGYHIDMTKE”, the “soluble on expression in E. coli” value is given as “soluble”. “SLAGPKESRDLTLEQFQVNFLDQYTIKHAFINGVNIYRCYPGAPPNNVQMVMQRSHGTEVPGIMVNLEGQQPTVVPLDASIIGAKKLTPTTTRPLHNVRVLRVNAVMRFHPLCRARFVGPNDISFGIRSATSQSIQEHIQELTDLMKKTQQADEQAMGALYSRSSALVSKLKMSGATSNVAFLEVPQTETRWGNPWTWYRAYLPTPLGDGVETWMTPIGDSGYYITVDFNFTESERQKNTENYQRARQLMDSVLQSVVIQKR”: the “soluble on expression in E. coli” value is on record as “soluble”. With “SLDAAVGDVIVTLGADLSESDKQKVLDEMNVPDNATTVTVTNKEEHEYLGKYISNAQIGSRAISSSSITIAKKGSGLNVETHNISGITDEMYLNALMTAGVKDAKVYVTAPFEVSGTAALTGLIKAYEVSSDEAISEDVKQVANQELVTTSELGDKIGNENAAALIAKIKEEFAKNGVPDNKADIEKQVDDAASDLNVTLTDSQKNQLVSLFNKMKNADIDWGQVSDQLDKAKDKITKFIESDEGKNFIQKVIDFFVSIWNAIVSIFK”, the “soluble on expression in E. coli” value is “soluble”. As to “SLDIKEIVGDYNSFLDTIFELLIKGGFKENELKELPIDHICYRVSTNEFYNEKKEQLNQLGELLVETEIGGRMISTFKLNKPIQYKDKSIPLIELPAPKKNRINYDGLEHIEMVINEPFQSFVDNHPSPIDENLKFNWVLHALNKDINPDVECEFIDPRIKNEIRTISVKFHHQSLEEVVKYEIQLLKENEG”, the “soluble on expression in E. coli” value is “soluble”. Take “SLDPLFTTQILKYKGDESFTCNDTLVREIKLEIFINDEKVGALMATPVDEQALAIGYLMSENIIAKVSDIESIETKDDGMSVHIKAKIDKENLAKLNAEGVVISGCGRAHTANIDPEAIEASKISSDAKFSKDEILKQMSTFYTQCELYEKTGCVHTAKLFVDEKTFFIGEDIAQHNTIDKALGKACLAGVDLSQCFLMVSGRLSSEMVAKAVMHKIPVLVSRTAPTCLGVMIARKFDLTLCGFARENKINIYSGEFRIHG”: the “soluble on expression in E. coli” value was “soluble”. The value for “SLDSEKVKVLSIEEDNQAEILKELGLPANASYYRIKRVRYSEDTPFLVHITHLPKKLVKEPLSKDLTAYASVYERVRKDFSVDLFSLASVETNEIVFPEDAELLNLLQLSFREPAVKQVKHSYLADGSVAEYIISYKHWKYFKTKIEVEAE” was “soluble”; that for “SLELKITDFKVFVAQANFEWAFVRIYSKDLYGTGEAGPAPGLKGMESEFIQLLIGEDAFKVNRIAEKLRYATLYSGTTVYHLISAINIALYDLIGKYLNVPIYKLLGGDKTEIPVYVDAHGGKGLEAINALHLPVNLPWIKEAEVETNRLITTNNPVHGRLSMEKWNEDYSPEAYAKRALKMKNEGYKAMKFDLDVPTPYIDLRRVRNGDLSLKDIDYMVDIVKAVRESVGDEVEIMFDLHWRYNLNTAIRICKALEPYRLRWLEDPMPAIMAVSNYDELKLLTSQCSVPIETGENLYTVYQFKDLLNTGVRVWAPDIVKAGGITEGRRIAELAAMYDIEYSPHNIASPIGTMAHAHVGSIANTFGFVEFHGHDVPFWNEIVKPKRKIIEDGVIKLTDDPGLGIDLDDEVMRKYWPTYEL” was “soluble”.

As for “SLFITDKRVKESATALNPSMFQGLYLQDQMLKDPTYLPIYGSSELSRLDEFHPSNYFQVNNEGFTPYLVGKGGSQSLIHSLNFAAHMDQLKGKKIVFIVSPQWFIKRGSDEQHFAPNYSALQGLDLAFNDQIDPEIKKKMMKRMLRFKAVQNDAILSELYKAMVNGQTWKVNALKPAAKVYYSMLEKKDLYYSTTESSGPKRYISQSVKDKSWSELNKLADQSGKRHSGSNDFHIDNPVYKKLKPKVPKLKGKNKGRSYAVSPEYGDFEMMLDILKDAGAEPMFVTIPVNGKWYDYTGFPKKGRTDYYKKVNKQIRAKGFQVADFSGHEYDPYFMKDTIHIGWKGWVYVDKAIDEFYKTGKVTSS”, the “soluble on expression in E. coli” value is “soluble”. Consider “SLKVNNLIAGALNLNSKDYKKSGKKVSFDKNNLFSSIFQAESVKEDKHFILLENGEFNLDLIKSMLDGINETGERLLSEPSRQNVIFYKKVISEFISIIISSSVCLKEQKGGNLGDPKRPKYRIIKIINDKLDKLAYSVLQNQMTQIKLLDSIEEIQGLLVNLLM”, for which the “soluble on expression in E. coli” value is “soluble”. Consider “SLLGGPGIELFRRLVEEYEREHDVPMADIAAALAVQCRGGEAFLMAPDPPLSRRNRDQRRDRPQRPKRRPDLTTYRVAVGKRHKIGPGAIVGAIANEGGLHRSDFGQIRIGPDFSLVELPAKLPRATLKKLAQTRISGVLIDLRPYRPPDAARRHNGGKPRRKHVG”, for which the “soluble on expression in E. coli” value was “not soluble”. For “SLLPSFFPCCRCKWSATGCGTCSTQDCEGICKMTSGEQAKTPLQAPILLTNVKPVGFGKGASQSSTDILIGGDGKIAAVGSALQAPADTQRIDAKGAFISPGWVDLHVHIWHGGTDISIRPSECGAERGVTTLVDAGSAGEANFHGFREYIIEPSRERIKAFLNLGSIGLVACNRVPELRDIKDIDLDRILECYAENSEHIVGLKVRASHVITGSWGVTPVKLGKKIAKILKVPMMVHVGEPPALYDEVLEILGPGDVVTHCFNGKSGSSIMEDEDLFNLAERCAGEGIRLDIGHGGASFSFKVAEAAIARGLLPFSISTDLHGHSMNFPVWDLATTMSKLLSVDMPFENVVEAVTRNPASVIRLDMENRLDVGQRADFTVFDLVDADLEATDSNGDVSRLKRLFEPRYAVIGAEAIAASRYIPRARKLVRHSHGYSWR”, the “soluble on expression in E. coli” value is on record as “soluble”. Take “SLPIFEARVKVGISSSWVTSRKVSWRDAIAQIESDRIVVKYLKMGEVVGEDSFPFSALIDLGVRIPDELKLNPEKDHFGIKFYIPGRGELLVIFTIEENLLIYDEKKFSEFVHKVFEVLINGKTVMLQLARIIGGAVNMESKWEEGWLRVIKVKSARTQKTERSIVVIIKDKRPVSIFSDLEDIEIEEVDMNGKRVRAWKIRHFHIDQSVTSYLYIPDKQTQLYVLRYLLKYNPAIMEFIMKVSDDFPTLKSEFQEIMEKEIKELEALDEMEKQILVALYSGINPLELHQFLGVSEKEIEEIYDRMIDKGLLKIVMIRKIVDLTNEGRKIVNKLLKYGLVSM”: the “soluble on expression in E. coli” value is on record as “soluble”.
